Results reported in patent US20220227830A1, “QD DOSING OF GIP RECEPTOR AGONIST PEPTIDE COMPOUNDS AND USES THEREOF” (Takeda Pharmaceutical Company Limited, priority 2020, published 2022).
Starred links: 1 amine or outer side, 2 acyl side, 3 side chain; linkers in the order of their positions; H or OH if unused. Non-standard residues stand in square brackets, D forms with d. Groups on a side chain read outwards from the residue. No end group written: not given here. *: point of attachment. 2OEGgEgE‑C15DA = 2OEGgEgE-C15 diacid linker-lipid on the Lys side chain, O=C(O)CCCCCCCCCCCCCC(=O)N[C@@H](CCC(=O)N[C@@H](CCC(=O)NCCOCCOCC(=O)NCCOCCOCC(=O)*)C(=O)O)C(=O)O; 2OEGgE‑C16DA = O=C(O)CCCCCCCCCCCCCCC(=O)N[C@@H](CCC(=O)NCCOCCOCC(=O)NCCOCCOCC(=O)*)C(=O)O; C15 diacid = O=C(O)CCCCCCCCCCCCCC(=O)*; γGlu = O=C(O)[C@H](CCC(=O)[*:2])N[*:1]; NMeY = CN[C@@H](Cc1ccc(O)cc1)C(=O)O; AEEA = NCCOCCOCC(=O)O; Aib = CC(C)(N)C(=O)O

T1: full-length human GIPR with an N-terminal FLAG tag (human, UniProt P48546 22-466)
T1 sequence (looked up): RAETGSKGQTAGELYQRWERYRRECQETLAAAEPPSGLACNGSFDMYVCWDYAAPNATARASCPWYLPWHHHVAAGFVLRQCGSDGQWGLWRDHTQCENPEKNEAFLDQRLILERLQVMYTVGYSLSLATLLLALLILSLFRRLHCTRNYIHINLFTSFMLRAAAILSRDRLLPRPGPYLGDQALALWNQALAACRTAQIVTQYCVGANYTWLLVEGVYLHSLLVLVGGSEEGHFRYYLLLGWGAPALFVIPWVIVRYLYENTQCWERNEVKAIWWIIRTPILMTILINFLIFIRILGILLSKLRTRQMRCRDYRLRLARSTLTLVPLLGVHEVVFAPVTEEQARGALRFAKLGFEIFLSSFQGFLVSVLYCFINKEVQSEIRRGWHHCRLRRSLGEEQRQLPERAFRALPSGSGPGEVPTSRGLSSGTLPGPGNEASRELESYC


Experiments:
[1] = target: full-length human GLP-1R with an N-terminal FLAG tag (human, UniProt P43220 24-463); test: cell-based or functional assay
[2] = target: T1, full-length human GIPR with an …; test: cell-based or functional assay

Row | Binder | Human GLP1R cAMP HEK293T EC50 [1] [nM] | Human GIPR cAMP, HEK293T EC50 [2] [nM]
1 | [NMeY][Aib]EGTFISDYSIALDR[Aib]AQ[Aib]DFVNWLLAK(2OEGgE‑C15DA)RPSSGAPPPS-NH2 [Compound 109] | 832 | 0.0005
2 | [NMeY][Aib]EGTFISDYSI[Aib]LDR[Aib]AQ[Aib]K(2OEGgEgE‑C15DA)FVNWLLAQR-NH2 (N-terminus assumed; SMILES CC[C@H](C)[C@H](NC(=O)[C@H](Cc1ccccc1)NC(=O)[C@@H](NC(=O)CNC(=O)[C@H](CCC(=O)O)NC(=O)C(C)(C)NC(=O)[C@H](Cc1ccc(O)cc1)NC)[C@@H](C)O)C(=O)N[C@@H](CO)C(=O)N[C@@H](CC(=O)O)C(=O)N[C@@H](Cc1ccc(O)cc1)C(=O)N[C@@H](CO)C(=O)N[C@H](C(=O)NC(C)(C)C(=O)N[C@@H](CC(C)C)C(=O)N[C@@H](CC(=O)O)C(=O)N[C@@H](CCCNC(=N)N)C(=O)NC(C)(C)C(=O)N[C@@H](C)C(=O)N[C@@H](CCC(N)=O)C(=O)NC(C)(C)C(=O)N[C@@H](CCCCNC(=O)COCCOCCNC(=O)COCCOCCNC(=O)CC[C@H](NC(=O)CC[C@H](NC(=O)CCCCCCCCCCCCCC(=O)O)C(=O)O)C(=O)O)C(=O)N[C@@H](Cc1ccccc1)C(=O)N[C@H](C(=O)N[C@@H](CC(N)=O)C(=O)N[C@@H](Cc1c[nH]c2ccccc12)C(=O)N[C@@H](CC(C)C)C(=O)N[C@@H](CC(C)C)C(=O)N[C@@H](C)C(=O)N[C@@H](CCC(N)=O)C(=O)N[C@@H](CCCNC(=N)N)C(N)=O)C(C)C)[C@@H](C)CC) [Compound 108] | 41.7 | 0.0005
3 | [NMeY][Aib]EGTFISDYSIALDRIHQ[Aib]NFVNWLLK(2OEGgE‑C16DA)QK [Compound 10] | 955 | 0.0006
4 | [NMeY][Aib]EGTFISDYSI[Aib]LDR[Aib]AQ[Aib]K([AEEA-γGlu-γGlu-γGlu-C15 diacid])FVNWLLAQK-NH2 (N-terminus assumed; SMILES CC[C@H](C)[C@H](NC(=O)[C@H](Cc1ccccc1)NC(=O)[C@@H](NC(=O)CNC(=O)[C@H](CCC(=O)O)NC(=O)C(C)(C)NC(=O)[C@H](Cc1ccc(O)cc1)NC)[C@@H](C)O)C(=O)N[C@@H](CO)C(=O)N[C@@H](CC(=O)O)C(=O)N[C@@H](Cc1ccc(O)cc1)C(=O)N[C@@H](CO)C(=O)N[C@H](C(=O)NC(C)(C)C(=O)N[C@@H](CC(C)C)C(=O)N[C@@H](CC(=O)O)C(=O)N[C@@H](CCCNC(=N)N)C(=O)NC(C)(C)C(=O)N[C@@H](C)C(=O)N[C@@H](CCC(N)=O)C(=O)NC(C)(C)C(=O)N[C@@H](CCCCNC(=O)COCCOCCNC(=O)CC[C@H](NC(=O)CC[C@H](NC(=O)CC[C@H](NC(=O)CCCCCCCCCCCCCC(=O)O)C(=O)O)C(=O)O)C(=O)O)C(=O)N[C@@H](Cc1ccccc1)C(=O)N[C@H](C(=O)N[C@@H](CC(N)=O)C(=O)N[C@@H](Cc1c[nH]c2ccccc12)C(=O)N[C@@H](CC(C)C)C(=O)N[C@@H](CC(C)C)C(=O)N[C@@H](C)C(=O)N[C@@H](CCC(N)=O)C(=O)N[C@@H](CCCCN)C(N)=O)C(C)C)[C@@H](C)CC) [Compound 112] | 12 | 0.0004
5 | [NMeY][Aib]EGTFISDYSI[Aib]LDR[Aib]AQ[Aib]KFVNWLLAQRGGGGS-NH2 (not fully specified (residue 21)) [Compound 114] | 115 | 0.0007
